The record followed here is the Immune Epitope Database (IEDB).

Where only a bound is given, the exact number is not on record here.

One experiment has as its target HLA-B*27:05. Nature of the experiment: IEDB peptide-MHC binding, purified MHC/competitive/fluorescence; filed as Kd, often an IC50 or EC50 that approximates it; ≥ and ≤ were set here for values at or beyond the usual limits of such assays.
A further experiment concerns the target HLA-B*46:01. The description is as above.
The next experiment addresses HLA-B*35:01. The experiment is described as above.
A further experiment has as its target HLA-C*14:02. Put plainly: IEDB peptide-MHC binding, purified MHC/direct/fluorescence; filed as Kd, often an IC50 or EC50 that approximates it; ≥ and ≤ were set here for values at or beyond the usual limits of such assays. Particulars: source organism: Mycobacterium tuberculosis H37Rv.
In another experiment the target is HLA-C*15:02. The description is as above. Particulars: source organism: Mycobacterium tuberculosis H37Rv.
The target in experiment [1] is HLA-A*26:01. The experiment is described as above.
Experiment [2] addresses HLA-A*26:01. Nature of the experiment: IEDB peptide-MHC binding, purified MHC/competitive/fluorescence; filed as Kd, often an IC50 or EC50 that approximates it; ≥ and ≤ were set here for values at or beyond the usual limits of such assays.
For another experiment, the target named is HLA-B*58:01. The experiment is described as above.
For the next experiment, the target named is HLA-B*15:01. The experiment is described as above.
Experiment [3] deals with HLA-A*24:03. Described as above.
Another experiment has as its target HLA-A*69:01. The experiment is described as above.
Another experiment has as its target HLA-B*27:03. The description is as above.
The next experiment has as its target HLA-B*39:01. The experiment is described as above.
A further experiment addresses HLA-A*02:01. Described as above.
The target of the next experiment is HLA-B*51:01. The experiment is described as above.
The target of experiment [4] is HLA-A*02:03. Put plainly: IEDB peptide-MHC binding, purified MHC/direct/fluorescence; filed as Kd, often an IC50 or EC50 that approximates it; ≥ and ≤ were set here for values at or beyond the usual limits of such assays. Particulars: source organism: Ravn virus - Ravn, Kenya, 1987.
The target in experiment [5] is HLA-A*68:02. The experiment is described as above. Particulars: source organism: Ravn virus - Ravn, Kenya, 1987.
A further experiment has as its target HLA-A*01:01. Described as above.
Experiment [6] addresses HLA-A*02:19. Described as above. Particulars: source organism: Ravn virus - Ravn, Kenya, 1987.
Experiment [7] addresses HLA-A*03:01. The description is as above. The following applies: source organism: Ravn virus - Ravn, Kenya, 1987.
In experiment [8] the target is HLA-A*24:03. Described as above. Particulars: source organism: Ravn virus - Ravn, Kenya, 1987.
Experiment [9] addresses HLA-A*02:16. The description is as above. The following applies: source organism: Ravn virus - Ravn, Kenya, 1987.
Experiment [10] deals with HLA-A*02:11. The description is as above. Particulars: source organism: Ravn virus - Ravn, Kenya, 1987.
Experiment [11] has as its target HLA-A*02:12. The description is as above. The following applies: source organism: Ravn virus - Ravn, Kenya, 1987.
Experiment [12] deals with HLA-A*02:03. Nature of the experiment: IEDB peptide-MHC binding, purified MHC/competitive/fluorescence; filed as Kd, often an IC50 or EC50 that approximates it; ≥ and ≤ were set here for values at or beyond the usual limits of such assays.
In experiment [13] the target is HLA-A*68:02. The experiment is described as above.
The target in a further experiment is HLA-B*57:01. Described as above.
Experiment [14] addresses HLA-A*02:19. Described as above.
The target in experiment [15] is HLA-A*03:01. The description is as above.
For the next experiment, the target named is HLA-B*18:01. Described as above.
Experiment [16] addresses HLA-A*02:16. Described as above.
For a further experiment, the target named is HLA-A*29:02. Described as above.
Experiment [17] has as its target HLA-A*02:11. Described as above.
Another experiment deals with HLA-A*23:01. Described as above.
The target of experiment [18] is HLA-A*02:12. The experiment is described as above.
The target in the next experiment is HLA-B*15:17. The experiment is described as above. The following applies: source organism: Giardia lamblia ATCC 50803.
In another experiment the target is HLA-C*03:03. Nature of the experiment: IEDB peptide-MHC binding, purified MHC/direct/fluorescence; filed as Kd, often an IC50 or EC50 that approximates it; ≥ and ≤ were set here for values at or beyond the usual limits of such assays. Particulars: source organism: Bacillus anthracis str. A0488.
[19] abbreviates: source organism: Mycobacterium tuberculosis H37Rv.
[20] abbreviates: source organism: Bacillus anthracis str. A2012.
Where [21] appears, read: source organism: Escherichia coli 536.
Where [22] appears, read: source organism: Zaire ebolavirus.
Where [23] appears, read: source organism: Sudan ebolavirus - Maleo (1979).
[24] abbreviates: source organism: Salmonella enterica subsp. enterica serovar Typhi str. CT18.
Setting [25] is: source organism: Mycobacterium tuberculosis variant bovis BCG str. Pasteur 1173P2.
[26] abbreviates: source organism: Giardia lamblia ATCC 50803.

The term Kd denotes the concentration at which binding is half-saturated. Read a high Kd as weaker binding. With VRFANELSF, the Kd in the experiment with HLA-B*27:05 (source organism: Bacillus cereus H3081.97) stood at 0.0996 µM.
Consider YVRTNGASY, for which the Kd with HLA-B*46:01 (setting [19]) was 2.22 µM; with HLA-B*35:01 (setting [19]), 0.0646 µM; with HLA-C*14:02, 0.353 µM; with HLA-C*15:02 it was at least 20 µM; in the experiment with HLA-A*26:01 [1] (source organism: Mycobacterium tuberculosis) it was 0.026 µM.
As to FVAAGAFHM, the Kd with HLA-B*35:01 (setting [20]) came out at 0.0037 µM; with HLA-A*26:01 [2] (setting [20]), 0.278 µM.
With QMLPGYFRF, the Kd with HLA-B*58:01 (setting [21]) turned out to be 0.046 µM; with HLA-B*15:01 (setting [21]), 0.223 µM; in the experiment with HLA-A*24:03 [3] (setting [21]) it was 0.0002 µM.
Take YSGNIVHRY: the Kd was at least 20 µM with HLA-B*46:01 (setting [22]); at least 20 µM in the experiment with HLA-A*69:01 (setting [22]); at least 20 µM in the experiment with HLA-B*27:03 (setting [22]); 0.0647 µM with HLA-B*58:01 (setting [22]); at least 20 µM with HLA-B*39:01 (setting [22]); at least 20 µM with HLA-A*02:01 (setting [22]). For the same sequence, the Kd with HLA-B*51:01 (setting [22]) was at least 20 µM; with HLA-A*02:03 [4], at least 20 µM; with HLA-A*68:02 [5], at least 20 µM; with HLA-A*01:01 (setting [23]) it was 0.0896 µM; in the experiment with HLA-A*02:19 [6], at least 20 µM; with HLA-A*03:01 [7] it was at least 20 µM. Besides, the Kd is 1.55 µM with HLA-A*26:01 [1] (setting [23]); at least 20 µM with HLA-A*24:03 [8]; at least 20 µM in the experiment with HLA-A*02:16 [9]; at least 20 µM in the experiment with HLA-A*02:11 [10]; at least 20 µM with HLA-A*02:12 [11].
With KSKPRIHGY, the Kd is at least 20 µM in the experiment with HLA-B*46:01 (setting [24]); at least 20 µM in the experiment with HLA-A*02:03 [12] (setting [24]); at least 20 µM in the experiment with HLA-A*69:01 (setting [24]); at least 20 µM with HLA-A*68:02 [13] (setting [24]); 0.169 µM with HLA-B*57:01 (setting [24]); at least 20 µM in the experiment with HLA-A*02:19 [14] (setting [24]). The dissociation constant (Kd) in the experiment with HLA-B*27:03 (setting [24]), with HLA-A*03:01 [15] (setting [24]), with HLA-B*18:01 (setting [24]), with HLA-A*26:01 [2] (setting [24]), with HLA-B*39:01 (setting [24]) and with HLA-A*24:03 [3] (setting [24]) was at least 20 µM throughout. In addition, the Kd in the experiment with HLA-A*02:01 (setting [24]), with HLA-A*02:16 [16] (setting [24]), with HLA-A*29:02 (setting [24]), with HLA-A*02:11 [17] (setting [24]), in the experiment with HLA-A*23:01 (setting [24]) and with HLA-B*51:01 (setting [24]) was at least 20 µM throughout. This sequence returned a dissociation constant Kd with HLA-A*02:12 [18] (setting [24]) of at least 20 µM.
For FVARIDLGY, the Kd with HLA-B*35:01 (source organism: Mycobacterium tuberculosis C) was determined as 0.0142 µM; in the experiment with HLA-A*01:01 (setting [25]), 0.603 µM; with HLA-A*26:01 [1] (setting [25]), 0.0199 µM.
Turning to DEYGPVFVE, the Kd with HLA-B*46:01 (setting [26]), with HLA-A*02:03 [12] (setting [26]), with HLA-B*15:17, with HLA-A*69:01 (setting [26]), with HLA-A*68:02 [13] (setting [26]) and with HLA-B*57:01 (setting [26]) was at least 20 µM each time. Also, the dissociation constant Kd in the experiment with HLA-A*02:19 [14] (setting [26]) is at least 20 µM; with HLA-B*27:03 (setting [26]), at least 20 µM; in the experiment with HLA-A*03:01 [15] (setting [26]), at least 20 µM; in the experiment with HLA-B*18:01 (setting [26]), 0.0861 µM; with HLA-A*26:01 [2] (setting [26]), at least 20 µM; with HLA-B*39:01 (setting [26]) it was at least 20 µM. The Kd in the experiment with HLA-B*15:01 (setting [26]), with HLA-A*24:03 [3] (setting [26]), with HLA-A*02:01 (setting [26]), with HLA-A*02:16 [16] (setting [26]), with HLA-A*29:02 (setting [26]) and with HLA-A*02:11 [17] (setting [26]) was at least 20 µM each time. Also, the Kd with HLA-A*23:01 (setting [26]), in the experiment with HLA-B*51:01 (setting [26]) and with HLA-A*02:12 [18] (setting [26]) was at least 20 µM each time.
Take KTNRTGLLM: in the experiment with HLA-B*58:01 (source organism: Bacillus cereus G9241), the dissociation constant (Kd) came out at 0.0913 µM.
As for ITLPISASL, the Kd with HLA-B*58:01 (source organism: Bacillus anthracis str. A0488) is 0.114 µM; with HLA-C*03:03 it was at most 0.001 µM.
Regarding GRITVSTKR, the Kd with HLA-B*27:05 (source organism: Influenza A virus (A/CHU/2-524/2005(H3N2))) came out at 0.315 µM.
